In publication PMC7318136:

Tests used:
Assay in all cases: NMR
Settings in all cases: 300 K; not stated; 20 mM sodium phosphate; phosphoric acid (20 %) added for lower pH, NaOH (1 M) for higher pH; samples dialysed overnight; folded isolated PsbO-β, 9-14 mg/mL, free of PSII partners
[1] = target: Asp102 (UniProt position 128, …)
[2] = target: Asp141 (UniProt position 167, …)
[3] = target: Asp205 (UniProt position 231, …)
[4] = target: Asp23 (UniProt position 49, …)
[5] = target: Asp24 (UniProt position 50, …)
[6] = target: Asp33 (UniProt position 59, …)
[7] = target: Asp79 (UniProt position 105, …)
[8] = target: Asp90 (UniProt position 116, …)
[9] = target: Asp99 (UniProt position 125, …)
[10] = target: Glu114 (UniProt position 140, …)
[11] = target: Glu145 (UniProt position 171, …)
[12] = target: Glu210 (UniProt position 236, …)
[13] = target: Glu216 (UniProt position 242, …)
[14] = target: Glu218 (UniProt position 244, …)
[15] = target: Glu232 (UniProt position 258, …)
[16] = target: Glu244 (UniProt position 270, FYASIEPA---)
[17] = target: Glu54 (UniProt position 80, …)
[18] = target: Glu64 (UniProt position 90, …)
[19] = target: Glu74 (UniProt position 100, …)
[20] = target: Glu84 (UniProt position 110, …)
[21] = target: Glu98 (UniProt position 124, …)

B1: PsbO-β (β-barrel construct of photosystem II manganese-stabilizing protein PsbO) (Thermosynechococcus elongatus; deletion of 1-15; deletion of 55-63 (replaced … (protein)
chain: MNHKCPTLDDTARGAYPIDSSQTYRIARLCLQPTTFLVKENGEFVPTKLVTRETTSLDQIQGELKVNSDGSLTFVEEDGIDFQPVTVQMAGGERIPLLFTVKNLVASTQPNVTSITTSTDFKGEFNVNGTKGQISLNVAKVDGRTGEIAGTFESEQLSNGHEVKIQGVFYASIEPA
pKa [1]: >7
pKa [2]: 4.89±0.03
pKa [3]: 3.45±0.09
pKa [4]: 3.41±0.05
pKa [5]: 3.06±0.03
pKa [6]: 3.47±0.05
pKa [7]: <2.5
pKa [8]: 1.56±0.14
pKa [9]: <5
pKa [10]: 3.81±0.08
pKa [11]: 4.52±0.04
pKa [12]: 2.66±0.12
pKa [13]: 3.91±0.10
pKa [14]: 5.13±0.07
pKa [15]: 4.20±0.10
pKa [16]: 4.97±0.08
pKa [17]: 4.47±0.06
pKa [18]: 4.17±0.04
pKa [19]: 3.37±0.05
pKa [20]: 4.64±0.07
pKa [21]: 4.99±0.04
